This is an account of results in publication PMC7532149, “Antibiotic export by MexB multidrug efflux transporter is allosterically controlled by a MexA-OprM chaperone-like complex” (Nature Communications, 2020).

T1: MexA (Pseudomonas aeruginosa), P52477
T1 chain: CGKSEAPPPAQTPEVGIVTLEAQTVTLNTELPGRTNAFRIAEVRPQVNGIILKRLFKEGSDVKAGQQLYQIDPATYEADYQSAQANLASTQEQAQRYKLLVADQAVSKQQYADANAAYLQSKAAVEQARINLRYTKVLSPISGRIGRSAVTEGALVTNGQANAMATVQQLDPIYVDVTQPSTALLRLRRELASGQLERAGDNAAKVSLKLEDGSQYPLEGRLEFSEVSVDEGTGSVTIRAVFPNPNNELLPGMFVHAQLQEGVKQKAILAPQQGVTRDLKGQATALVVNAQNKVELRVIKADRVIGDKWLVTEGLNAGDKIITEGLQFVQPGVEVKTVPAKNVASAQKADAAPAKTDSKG

B1: MexA, P52477 24-383 (natural protein)
chain: T1 chain
modifications: here or on the partner: lipid moiety of the N-terminal cysteine; lipid moiety of the N-terminal cysteine
B2: MexA (natural protein)
chain: T1 chain
modifications: lipid moiety of the N-terminal cysteine
notes: MexA, periplasmic membrane fusion lipoprotein of Pseudomonas aeruginosa; N-terminal cysteine carries a lipid moiety; Six copies (a hexamer of two non-equivalent protomers, MexA-I and MexA-II) stand in the tripartite complex; also called MexA-I; MexA-II; source: reconstituted with MexB in POPC nanodiscs or DOPC/cholesterol proteoliposomes
B3: MexB (natural protein)
chain: MSKFFIDRPIFAWVIALVIMLAGGLSILSLPVNQYPAIAPPAIAVQVSYPGASAETVQDTVVQVIEQQMNGIDNLRYISSESNSDGSMTITVTFEQGTDPDIAQVQVQNKLQLATPLLPQEVQRQGIRVTKAVKNFLMVVGVVSTDGSMTKEDLSNYIVSNIQDPLSRTKGVGDFQVFGSQYSMRIWLDPAKLNSYQLTPGDVSSAIQAQNVQISSGQLGGLPAVKGQQLNATIIGKTRLQTAEQFENILLKVNPDGSQVRLKDVADVGLGGQDYSINAQFNGSPASGIAIKLATGANALDTAKAIRQTIANLEPFMPQGMKVVYPYDTTPVVSASIHEVVKTLGEAILLVFLVMYLFLQNFRATLIPTIAVPVVLLGTFGVLAAFGFSINTLTMFGMVLAIGLLVDDAIVVVENVERVMAEEGLSPREAARKSMGQIQGALVGIAMVLSAVFLPMAFFGGSTGVIYRQFSITIVSAMALSVIVALILTPALCATMLKPIEKGDHGEHKGGFFGWFNRMFLSTTHGYERGVASILKHRAPYLLIYVVIVAGMIWMFTRIPTAFLPDEDQGVLFAQVQTPPGSSAERTQVVVDSMREYLLEKESSSVSSVFTVTGFNFAGRGQSSGMAFIMLKPWEERPGGENSVFELAKRAQMHFFSFKDAMVFAFAPPSVLELGNATGFDLFLQDQAGVGHEVLLQARNKFLMLAAQNPALQRVRPNGMSDEPQYKLEIDDEKASALGVSLADINSTVSIAWGSSYVNDFIDRGRVKRVYLQGRPDARMNPDDLSKWYVRNDKGEMVPFNAFATGKWEYGSPKLERYNGVPAMEILGEPAPGLSSGDAMAAVEEIVKQLPKGVGYSWTGLSYEERLSGSQAPALYALSLLVVFLCLAALYESWSIPFSVMLVVPLGVIGALLATSMRGLSNDVFFQVGLLTTIGLSAKNAILIVEFAKELHEQGKGIVEAAIEACRMRLRPIVMTSLAFILGVVPLAISTGAGSGSQHAIGTGVIGGMVTATVLAIFWVPLFYVAVSTLFKDEASKQQASVEKGQ
notes: MexB, inner-membrane RND multidrug efflux transporter of Pseudomonas aeruginosa; wild type; Homotrimer, both alone in the nanodisc (MexB-solo, LTC form) and in the tripartite complex (MexB-trio, LTO form); also called MexB-solo; MexB-trio; source: reconstituted in POPC nanodiscs (MSP1E3D1) or DOPC/cholesterol proteoliposomes
B4: OprM (natural protein)
chain: CSLIPDYQRPEAPVAAAYPQGQAYGQNTGAAAVPAADIGWREFFRDPQLQQLIGVALENNRDLRVAALNVEAFRAQYRIQRADLFPRIGVDGSGTRQRLPGDLSTTGSPAISSQYGVTLGTTAWELDLFGRLRSLRDQALEQYLATEQAQRSAQTTLVASVATAYLTLKADQAQLQLTKDTLGTYQKSFDLTQRSYDVGVASALDLRQAQTAVEGARATLAQYTRLVAQDQNALVLLLGSGIPANLPQGLGLDQTLLTEVPAGLPSDLLQRRPDILEAEHQLMAANASIGAARAAFFPSISLTANAGTMSRQLSGLFDAGSGSWLFQPSINLPIFTAGSLRASLDYAKIQKDINVAQYEKAIQTAFQEVADGLAARGTFTEQLQAQRDLVKASDEYYQLADKRYRTGVDNYLTLLDAQRSLFTAQQQLITDRLNQLTSEVNLYKALGGGWNQQTVTQQQTAKKEDPQA
notes: OprM, outer-membrane factor of the MexAB-OprM efflux system of Pseudomonas aeruginosa; Homotrimer; also called OprM-ND; outer-membrane factor (OMF); source: reconstituted in POPC nanodiscs (MSP1D1) or DOPC proteoliposomes

Common to all, as to assay: cryo-EM structure; tripartite MexAB-OprM complex self-assembled from MexA and MexB in POPC nanodiscs and OprM in POPC nanodiscs; 10 mM Tris/Cl pH 7.4, 100 mM NaCl; enriched by SEC (Superose 6, detergent-free buffer); single-particle analysis, no symmetry imposed
(In general: SEC sorts molecules by how far they enter the pores of the column.)

Series [1] addresses T1, MexA (Pseudomonas aeruginosa), P52477. The note with it: remark: other sources report otherwise.
The series “OprM” concerns the target B4. To be noted: both partners purified.
Series [2] concerns the molecule itself.

In general, stoichiometry N refers to the number of molecules, sites or subunits per partner or assembly. Molecule B1 yielded a stoichiometry N in series [1] of 6.
In the case of B2, the “stoichiometry N” value with OprM worked out at 2 MexA per OprM.
As to B3, in series [2], the “stoichiometry N” value is 3.
B4: the “stoichiometry N” value in series [2] was 3.
